# Measured values: patent publication US20090280135A1
# B1: β1α1/MBP-69-89 complex (rat RT1.B β1α1 construct loaded with MBP-69-89 peptide) (peptide-MHC)
# chain: MGRDSPRDFVYQFKGLCYYTNGTQRIRDVIRYIYNQEEYLRYDSDVGEYRALTELGRPSAEYFNKQYLEQTRAELDTVCRHNYEGSEVRTSLRRLGGQDDIEADHVAAYGINIYQYYESRGQFTHEFDGDEEFYVDLDKKETIWRIPEFGQLTSFDPQGGLQNIAIIKHNLEILMKRSNSTQAVN
# peptide: GSLPQKSQRSQDENPVVHF
# B2: β1α1/MBP-55-69 complex (rat RT1.B β1α1 loaded with Gp-MBP-55-69 peptide) (peptide-MHC)
# chain: B1 chain
# peptide: SGKDSHHAARTTHYG
# B3: A488-conjugated β1α1 loaded with MBP-69-89 (peptide-MHC)
# chain: B1 chain
# peptide: GSLPQKSQRSQDENPVVHF
# modifications: Alexa-488 dye conjugated (molar ratio dye/protein=1), site not stated
# B4: β1α1/CM-2 complex (rat RT1.B β1α1 construct loaded with cardiac myosin peptide CM-2) (peptide-MHC)
# chain: B1 chain
# peptide: KLELQSALEEAEASLEH
# What was measured:
# [1] = molecular target: rat BV8S2 TCR of the A1 T-cell hybridoma (C14/BW12-12A1), specific for Gp-BP-72-89 (rat); assay: flow cytometry on A1 hybridoma
# [2] = molecular target: rat BV8S2 TCR of the A1 T-cell hybridoma (C14/BW12-12A1), specific for Gp-BP-72-89 (rat); assay: flow cytometry on A1 hybridoma, 10 µM complex, 17 h at 4 C, detection with OX6-PE
# [3] = molecular target: TCR of the MBP-69-89 specific short-term rat T-cell line (rat); assay: cell-based or functional assay
# [4] = molecular target: rat BV8S2 TCR of the A1 T-cell hybridoma (C14/BW12-12A1), specific for Gp-BP-72-89 (rat); assay: flow cytometry on A1 hybridoma with directly A488-labelled complex, 3 h at 4 C
# [5] = molecular target: TCR of the cardiac myosin CM-2-specific cell line (rat); assay: flow cytometry on CM-2 cell line (blocked with unconjugated OX6), 10 µM complex, detection with OX6-PE
binder,measurement,setting,value
B1,fold increase in MFI over background,[1],10 fold
same,mean fluorescence intensity (MFI),[2],800 Units
same,inhibition of proliferation ([3H]thymidine) of MBP-69-89 specific T-cell line after pre-treatment with 10 nM complex,[3],> 90%
B2,inhibition of proliferation ([3H]thymidine) of MBP-69-89 specific T-cell line after pre-incubation with 20 µM complex,[3],27%
B3,MCI,[4],300 Units
B4,mean fluorescence intensity (MFI),[5],1800 Units
